Data set [1] deals with T1, mesothelin protein (Homo sapiens, UniProt Q13421). Put plainly: Affinity measurements and kinetic analysis using BIAcore (SPR), mesothelin immobilised. Type of data set: binding. The protocol: To know the biding kinetics difference among individual antibodies, surface plasmon resonance (SPR) measurement with a BIAcore T200 (Cytiva Inc.) was used as previously described (Karlsson & Falt, (1997) J. Immunol Methods 200:121-133). Carboxymethylated dextran biosensor chips (CM5, Cytiva Inc.) were activated with N-ethyl-N′-(3-dimethylaminopropyl)-carbodiimide hydrochloride (EDC) and N-hydroxysuccinimide (NHS) according to the supplier's instructions. Mesothelin protein was diluted with 10 mM sodium acetate, pH 4.0, into 5 μg/ml before injection at a flow rate of 10 μL/minute to achieve approximately 1500 response units (RU) of coupled protein followed by the injection of 1M ethanolamine to block unreacted groups. For kinetics measurements, two-fold serial dilutions of anti-mesothelin mAb (0.3125 nM to 40 nM) were injected in HBS-EP+ Biacore running buffer provided by the manufacturer (Cytiva Inc.) at 25 degree C. at a flow rate of 30 μL/min, and binding responses on the mesothelin protein were corrected by subtraction of responses on a blank flow cell. Association rates (kon or ka) and dissociation rates (koff or kd) were calculated using a simple one-to-one Langmuir binding model with separate fittings of kon and koff was used. (Cytiva.™. Biacore Insight Evaluation Software).
On the technique in general: In SPR one partner is held on a chip, and binding of the other changes the refractive index at the surface.

Data set [2] concerns the target T1, mesothelin protein. Put plainly: Binding kinetics of anti-mesothelin ADCs by surface plasma resonance (Biacore T100). The conditions noted are these: analyte MSLN; for Ka: antibody/ADC captured on CM5 chip via anti-human IgG-Fc; for dissociation rate constant (koff): antibody/ADC captured on CM5 chip. The protocol: The kinetic constant of the anti-mesothelin ADCs interaction against mesothelin was determined by surface plasma resonance (Biacore® T100, Biacore, Inc., Piscataway, NJ). The flow cell of the CM5 wafer was fixed with approximately 10,000 reaction units (RU) of anti-human IgG-Fc (Biacore®) in 10 mM glycine pH 5.0 at 10 μL/min for 600 seconds. 10 μg/mL of anti-mesothelin antibody and anti-mesothelin ADCs diluted in TBS at 10 μl/min were captured on CM5 chips. Four concentrations (from 3.7 to 100 nM) of human mesothelin recombinant protein and zero concentration (flow buffer) in 100 μl/min binding were recorded in PBS containing 1 mM CaCl2 for 3 minutes. The dissociation of the complex was measured for 10 minutes. The water surface was regenerated by injecting 3 M MgCl2 and 3 mM EGTA at 10 μl/min for 60 seconds. The curve obtained after subtracting the reference and buffer signals was taken into the 1:1 Langmuir binding model using the Biacore® T100 evaluation software (Biacore®).

Data set [3] relates to KLM-1 human pancreatic cancer xenograft. In words: KLM-1 xenograft model (Example 44). Type of data set: in vivo. The note with it: 30 mg/kg IV once weekly for 3 weeks. The protocol:
Each of the formulations was administered intravenously (IV) to the mice once weekly for three weeks.
(§1) Five mice were housed in each cage.
When the average tumor volume had reached 200 mm^3, the mice were randomLy divided into 4 groups (N=6 per group). Each of the vehicle, DCBPR2002-4(DBCO-vc-MMAE) (15 and 30 mg/kg), and naked antibody (DCBPR2002, 30 mg/kg) was intravenously administered once weekly for 3 weeks.
(§2) Differences are considered significant at *P<0.05.

For data set [4], the system named is Pancreatic cancer cell line KLM-1 (MSLN+). Put plainly: In vitro cytotoxicity, CellTiter-Glo luminescent cell viability assay, KLM-1. It counts as cell-based, human. The note with it: KLM-1, 72 hours treatment; read-out: Relative IC50 (nM of toxic payload/ADCs). The protocol:
(§3) Pancreatic cancer cell line KLM-1 was respectively grown in RPMI 1640 Medium (ATCC modification) medium supplemented with 10% fetal bovine serum. Ovarian carcinoma cell line OVCAR-3 was grown in RPMI 1640 Medium (ATCC modification) medium supplemented with 20% fetal bovine serum. The KLM-1 & OVCAR-3 cell lines were maintained in an atmosphere of 5% CO2 in a humidified 37° C. incubator. The day before treatment, cells were collected and seeded into 96-well plates (4,000 cells per well). On the second day, cells were treated with 3-fold serial dilution concentration of toxic payloads and ADCs. Each treatment was performed in eight triplicate data points. After the treatment of 72 hours, cell viability was assessed by CellTiter-Glo® kit (Promega) according to the manufacturer's instruction. At the end of the incubation, luminescence was measured using a SpectraMax i3x Multi Mode Detection Platform (Molecular Devices). Compound cytotoxicity was evaluated in comparison to cells treated with 0.05% PBS (ADCs) or 0.05% DMSO (toxic payload). IC50 values were calculated by fitting viability data with a four-parameter logistic equation using GraphPad prism 5.0 software.
Background: In ATP-based viability assays light output follows the ATP content of the culture.

Data set [5] relates to Ovarian carcinoma cell line OVCAR-3 (MSLN+). In words: In vitro cytotoxicity, CellTiter-Glo luminescent cell viability assay, OVCAR-3. The conditions noted are these: OVCAR-3, 72 hours treatment; read-out: Relative IC50 (nM of toxic payload/ADCs). Type of data set: cell-based, human. On the procedure: as §3, with “The” for “Pancreatic cancer cell line KLM-1 was respectively grown in RPMI 1640 Medium (ATCC modification) medium supplemented with 10% fetal bovine serum. Ovarian carcinoma cell line OVCAR-3 was grown in RPMI 1640 Medium (ATCC modification) medium supplemented with 20% fetal bovine serum. The”

For data set [6], the system named is KLM-1 human pancreatic cancer xenograft. Put plainly: KLM-1 xenograft model (Example 45). The conditions noted are these: 15 mg/kg IV once weekly for 3 weeks. On the procedure: Formulations respectively comprising test article DCBPR2002-4(DBCO-vc-MMAE)(15 mg/kg), test article DCBPR2002-4(DBCO-vc-seco-DUBA)(15 mg/kg), test article DCBPR2002-4(DBCO-s-DM1) (15 mg/kg), test article DCBPR2002-2(DBCO-vc-MMAE)-2(DBCO-vc-seco-DUBA) (15 mg/kg), test article DCBPR2002-2(DBCO-vc-MMAE)-2(DBCO-s-DM1) (15 mg/kg), test article DCBPR2002-2(DBCO-vc-seco-DUBA)-2(DBCO-s-DM1) (15 mg/kg), and a corresponding vehicle were formulated by diluting the stock with a 25 mM sodium citrate buffer (pH6.5). Each of the formulations was administered intravenously (IV) once weekly for three weeks.
The KLM-1 cells were maintained in vitro as a monolayer culture in RPMI-1640 medium supplemented with 10% fetal bovine serum at 37° C. in an atmosphere of 5% CO2 in air. The tumor cells were routinely sub-cultured twice weekly by trypsin-EDTA treatment. The cells growing in an exponential growth phase were harvested and counted for tumor inoculation.
Male NOD SCID mice at age of 6-7 weeks were purchased from BioLasco Taiwan Co., LTD. and quarantined for one week. Five mice were housed in each cage. All animals were hosted in the animal facility with a 12-h light/12-h dark cycle at 19-25° C. Animals had free access to rodent pellet foods and water ad libitum.
KLM-1 cells were subcutaneously (SC) implanted (4×10^6 cells in 1:1 PBS/matrigel mixture at 0.1 mL per mouse) into the right flank of male NOD SCID mice. When the average tumor volume had reached 300 mm^3, the mice were randomly divided into 7 groups (N=6 per group). Each of the vehicle, DCBPR2002-4(DBCO-vc-MMAE), DCBPR2002-4(DBCO-vc-seco-DUBA), DCBPR2002-4(DBCO-s-DM1), DCBPR2002-2(DBCO-vc-MMAE)-2(DBCO-vc-seco-DUBA), DCBPR2002-2(DBCO-vc-MMAE)-2(DBCO-s-DM1), DCBPR2002-2(DBCO-vc-seco-DUBA)-2(DBCO-s-DM1) was intravenously administered as 15 mg/kg once weekly for 3 weeks.
The tumor volumes, body weights, mortality, and signs of overt toxicity were monitored and recorded three times weekly for 28 days. Tumor volumes were measured three times per week using calipers and calculated according to the formula: Tumor Volume=(w2×l)/2, where w=width and l=length in diameter (mm) of the tumor. […] One-way ANOVA followed by Dunnett's test was applied for comparison between the vehicle and test article-treated groups. Differences are considered significant at *P<0.05. Animals were weighed three times weekly until the completion of the study.

Data set [7] concerns OVCAR-3 human ovarian cancer xenograft. Put plainly: OVCAR-3 xenograft model (Example 46). It counts as in vivo, female NOD SCID mice. The conditions noted are these: 15 mg/kg IV once weekly for 3 weeks. On the procedure: as §1
OVCAR-3 cells were subcutaneously (SC) implanted (1×10^7 cells in 1:1 PBS/matrigel mixture at 0.2 mL per mouse) into the right flank of female NOD SCID mice. […] Each of the vehicle, DCBPR2002-4(DBCO-vc-MMAE) (15 and 30 mg/kg), and DCBPR2002-4(DBCO-vc-seco-DUBA) (15 mg/kg) was intravenously administered once weekly for 3 weeks.
as §2

T1 sequence (Q13421 with tags, fused parts or gaps): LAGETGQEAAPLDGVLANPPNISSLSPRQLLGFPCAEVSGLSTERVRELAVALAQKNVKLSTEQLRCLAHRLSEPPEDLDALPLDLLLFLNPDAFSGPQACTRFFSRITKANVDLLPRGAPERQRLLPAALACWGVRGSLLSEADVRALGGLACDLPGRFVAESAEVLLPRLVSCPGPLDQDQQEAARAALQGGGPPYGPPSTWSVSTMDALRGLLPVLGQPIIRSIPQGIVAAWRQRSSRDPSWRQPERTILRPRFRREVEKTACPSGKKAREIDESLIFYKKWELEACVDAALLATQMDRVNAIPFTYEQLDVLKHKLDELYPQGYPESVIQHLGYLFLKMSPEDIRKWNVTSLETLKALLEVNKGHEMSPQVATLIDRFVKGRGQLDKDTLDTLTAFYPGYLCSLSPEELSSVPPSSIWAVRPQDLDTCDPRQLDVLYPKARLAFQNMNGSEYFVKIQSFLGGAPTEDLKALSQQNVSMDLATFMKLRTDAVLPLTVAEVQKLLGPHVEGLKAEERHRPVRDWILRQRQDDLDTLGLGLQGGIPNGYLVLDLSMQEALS

B1: DCBPR2002: humanized anti-mesothelin antibody, heavy chain variable region SEQ ID NO: 11, light chain variable region SEQ ID NO: 12 (antibody, V domains shown)
VH: QVQLVQSGAEVKKPGASVKVSCKASGYSFTGYTMNWVRQAPGQGLEWMGLITPYNGASSYNQKFRGRVTMTRDTSISTAYMELSRLRSDDTAVYYCARGGYDGRGFDYWGQGTLVTVSS
VL: EIVLTQSPATLSLSPGERATLSCSASSSVSYMHWYQQKPGQAPRLLIYDTSKLASGIPARFSGSGSGTDFTLTISSLEPEDFAVYYCQQWSKHPLTFGQGTKVEIKR
modifications: Artificial antibody
For B1, the “Rmax(RU)” value in the data set with mesothelin protein [1] (BIAcore T200) was 180.6 RU; with mesothelin protein [2], 58.1 RU. Moreover, the “ka” value with mesothelin protein [1] (BIAcore T200, 25 degree C, 1:1 Langmuir model) turned out to be 4.493e+06 M⁻¹ s⁻¹. Further, the “kd” value with mesothelin protein [1] (BIAcore T200, 25 degree C, 1:1 Langmuir model, listed as HuSS1) stood at 1.124e-05 s⁻¹; with mesothelin protein [1] (BIAcore T200, 25 degree C, 1:1 Langmuir model, listed as HuSS1mAb), 1.124e-05 s⁻¹. The same molecule gave a Ka with mesothelin protein [2] of 5.091E+6. For the same molecule, the “dissociation rate constant (koff)” value with mesothelin protein [2] is given as 8.593E−5. In data set [3], the body weight changes result is listed as “No body weight loss was observed”. Moreover, in data set [3] (TGI≥58% considered significant), the “tumor growth / anti-tumor activity” value is reported as “did not show significant anti-tumor activity”.

B2: DCBPR2002-2(DBCO-vc-MMAE)-2(DBCO-vc-seco-DUBA): dual-payload ADC: DCBPR2002-2(DBCO-vc-MMAE)-2Az reacted with DBCO-vc-seco DUBA; DAR ~4 (conjugate)
VH: QVQLVQSGAEVKKPGASVKVSCKASGYSFTGYTMNWVRQAPGQGLEWMGLITPYNGASSYNQKFRGRVTMTRDTSISTAYMELSRLRSDDTAVYYCARGGYDGRGFDYWGQGTLVTVSS
VL: EIVLTQSPATLSLSPGERATLSCSASSSVSYMHWYQQKPGQAPRLLIYDTSKLASGIPARFSGSGSGTDFTLTISSLEPEDFAVYYCQQWSKHPLTFGQGTKVEIKR
With B2, in the data set with mesothelin protein [2], the “Rmax(RU)” value is recorded as 50.98 RU, the Ka worked out at 4.752E+6 and the “dissociation rate constant (koff)” value is given as 1.218E−4. In addition, in data set [4], the IC50 is 46 nM. The IC50 in data set [5] worked out at 43.3 nM. Moreover, in data set [6], the body weight changes entry is on record as “No body weight loss was observed” and the “ranking of efficacy potency” value is given as “DCBPR2002-4(DBCO-vc-seco-DUBA)=DCBPR2002-2(DBCO-vc-MMAE)-2(DBCO-vc-seco-DUBA)=DCBPR2002-2(DBCO-vc-seco-DUBA)-2(DBCO-s-DM1)>DCBPR2002-4(DBCO-vc-MMAE)>DCBPR2002-2(DBCO-vc-MMAE)-2(DBCO-s-DM1)>DCBPR2002-4(DBCO-s-DM1)”.

B3: DCBPR2002-4(DBCO-vc-seco-DUBA): DCBPR2002-4Az reacted with DBCO-vc-seco DUBA; ADC, DAR ~4 (conjugate)
VH: QVQLVQSGAEVKKPGASVKVSCKASGYSFTGYTMNWVRQAPGQGLEWMGLITPYNGASSYNQKFRGRVTMTRDTSISTAYMELSRLRSDDTAVYYCARGGYDGRGFDYWGQGTLVTVSS
VL: EIVLTQSPATLSLSPGERATLSCSASSSVSYMHWYQQKPGQAPRLLIYDTSKLASGIPARFSGSGSGTDFTLTISSLEPEDFAVYYCQQWSKHPLTFGQGTKVEIKR
On to B3, for which the results for the IC50 in data set [4] and in data set [5] were 19.4 nM and 23.9 nM, respectively. Moreover, the body weight changes entry in data set [6] and in data set [7] was “No body weight loss was observed” in each case. Further, the “ranking of efficacy potency” value in data set [6] is listed as “DCBPR2002-4(DBCO-vc-seco-DUBA)=DCBPR2002-2(DBCO-vc-MMAE)-2(DBCO-vc-seco-DUBA)=DCBPR2002-2(DBCO-vc-seco-DUBA)-2(DBCO-s-DM1)>DCBPR2002-4(DBCO-vc-MMAE)>DCBPR2002-2(DBCO-vc-MMAE)-2(DBCO-s-DM1)>DCBPR2002-4(DBCO-s-DM1)”.

Values taken from patent publication US11998613B2, “Antibody-drug conjugates containing an anti-mesothelin antibody and uses thereof” (DEVELOPMENT CENTER FOR BIOTECHNOLOGY, priority 2020, dated 2024).
